Measured values published in patent US20180369425A1, “LINKED AND OTHER pH-TRIGGERED COMPOUNDS” (priority 2017, published 2018).
Values joined by “and” are separate entries in the source; they are usually repeats but may differ in a detail not shown here. Identical values can stand only once. Residues, ends and D or L forms follow the SMILES beside them. *: point of attachment. X1 = CC1(C)C(/C=C/C=C/C=C/C=C2/N(CCCCCC(=O)NCCN3C(=O)CC(*)C3=O)c3ccc4ccccc4c3C2(C)C)=[N+](CCCCS(=O)(=O)[O-])c2ccc3ccccc3c21

Experiments:
[1] = tested on: Human mammary epithelial cells (HMEpC); assay: Cytotoxicity of ICG-pHLIP; type: cell-based; settings: 0.125 to 16 μM, 48 and 72 hours
Description: Human mammary epithelial cells (HMEpC) were acquired from Cell Applications Inc, and authenticated, and stored according to supplier's instructions. Cells were cultured in mammary epithelial cell growth medium provided by Cell Applications Inc. HMEpC cells were loaded in the wells of 96-well plates (˜6,000 cells per well) and incubated overnight. The increasing amounts of ICG-pHLIP dissolved in cell growth medium were added to cells to have the following final concentration of ICG-pHLIP with cells: 0.125, 0.25, 0.5, 1, 2, 4, 8 and 16 μM. After 48 and 72 hours of incubation, a colorimetric reagent (CellTiter 96 AQueous One Solution Assay, Promega) was added for 1 hour followed by measuring absorbance at 490 nm to assess cell viability. All samples were prepared in triplicate and each experiment was repeated several times.

[2] = in vivo; settings: female, BALB/cAcNHsd, mouse, iv, 2.5 nmol, 4 hours post injection, constant up to 16 hours, rough estimation, read-out: amount of ICG-pHLIP in tumors
Description: The fluorescence signals in organs and tissue were also measured in the tissue/organ homogenates and compared with the signals from the control tissue/organ homogenates (collected from control mice) mixed with known amounts of ICG-pHLIP. About 100 mg of tissue (tumor, liver or kidney) were homogenized with 2.5× (about 250 μL) volumes of DMSO using BioMasher II disposable homogenizers (DiagnoCine LLC). 30 μl of homogenate was placed into 384 well plate and imaged using an Odyssey IR scanner. Tumor, liver or kidney homogenates of control mice, mixed with known concentrations of ICG-pHLIP were used to establish the calibration curve. First, note that the fluorescence signals obtained on the control tumor, liver and kidney mixed with the known amounts of ICG-pHLIP were the same. Second, the course of signal changes in tumor, liver and kidney (data not shown) was in excellent correlation with the course of the kinetics presented on FIGS. 18A-F. It is rather difficult to establish precisely the amount of ICG-pHLIP in the tissue and organ samples; however, rough estimations can be made using the calibration curve. […] At 26 hours, when the blood is cleared and the fluorescence signal in all organs is minimal, the contrast between tumor and surrounding tissue is very significant.

[3] = Blood clearance of ICG-pHLIP after single tail vein injection; type: in vivo, mouse; settings: for Concentration in blood, Mean ± St. D.: 5 animals; for Concentration in blood, Mean ± St. D. / Concentration in blood: 2.5 nmol tail vein; for Concentration in blood: individual animal, listed as ICG-Var3
Description: BALB/cAcNHsd mice ranging in age from 5 to 6 weeks obtained from Envigo RMS Inc were used in the study. Mouse mammary 4T1 cancer cells were subcutaneously implanted in the right flank (8×10^5 cells/0.1 mL/flank) of adult female mice. Triple negative 4T1 tumor model closely mimics stage IV of human breast cancer. When tumors reached 5-6 mm in diameter, single tail vein injections of 2.5 nmol (or 0.5 mg/kg) of ICG-pHLIP in sterile PBS with 5% DMSO or 5% Ethanol (volume of the injection was 100 μl) were performed. The whole body and ex vivo imaging was performed using a Stryker 1588 AIM clinical imaging system with L10 AIM Light Source, 1588 AIM Camera using a 10 mm or 5 mm scope.
Animals were euthanized at time points: 5 min, 1 hr, 2 hrs, 4 hrs, 6 hrs, 16 hrs, 26 hrs and 48 hrs. […] 100 μl of blood was collected immediately after euthanasia and mixed with 12.5 μl of citrate-dextrose anticoagulant solution (kept at 4° C.), and necropsy was performed. Tumor, muscles, skin, heart, lungs, liver, spleen, kidneys, brain, pancreas, bone, stomach, small and large intestines were collected, imaged immediately after collection, weighed, and fast frozen in liquid nitrogen.
Blood samples mixed with of anti-coagulant solution were placed in 384 well plates (MatTek, glass bottom) (15 μL per well) and imaged on an Odyssey IR scanner (Li-Cor Biosciences). […] The same amounts (15 μL) of blood samples were placed in 384 well plate and imaged together with all other blood samples. The digital images were processed using the Image J program to calculate mean fluorescence intensity. The calibration curve (known concentration of ICG-pHLIP in blood samples vs intensity) was constructed to calculate the amount of ICG-pHLIP in blood samples collected from the mice at different times after construct administration.

For `CC(C)C[C@H](NC(=O)[C@H](Cc1ccc(O)cc1)NC(=O)[C@H](C)NC(=O)[C@H](CCCNC(=N)N)NC(=O)[C@H](Cc1c[nH]c2ccccc12)NC(=O)[C@@H]1CCCN1C(=O)[C@H](CC(N)=O)NC(=O)[C@H](CCC(N)=O)NC(=O)[C@H](CC(=O)O)NC(=O)[C@H](CC(=O)O)NC(=O)[C@H](CSC1CC(=O)N(CCNC(=O)CCCCCN2/C(=C/C=C/C=C/C=C/C3=[N+](CCCCS(=O)(=O)[O-])c4ccc5ccccc5c4C3(C)C)C(C)(C)c3c2ccc2ccccc32)C1=O)NC(=O)[C@H](C)N)C(=O)N[C@@H](CC(=O)O)C(=O)N[C@@H](CC(C)C)C(=O)N[C@@H](CC(C)C)C(=O)N[C@@H](Cc1ccccc1)C(=O)N1CCC[C@H]1C(=O)N[C@H](C(=O)N[C@@H](CC(=O)O)C(=O)N[C@H](C(=O)N[C@@H](CC(C)C)C(=O)N[C@@H](CC(C)C)C(=O)N[C@@H](CC(C)C)C(=O)N[C@@H](CC(=O)O)C(=O)N[C@@H](CC(C)C)C(=O)N[C@@H](CC(C)C)C(=O)N[C@@H](Cc1c[nH]c2ccccc12)C(=O)N[C@@H](C)C(=O)O)[C@@H](C)O)[C@@H](C)O` (stereo partly shown) [ICG-pHLIP] (H-AC(X1)DDQNPWRAYLDLLFPTDTLLLDLLWA-OH), the cytotoxic effect [1] was “did not show any cytotoxic effect”, the tissue uptake [2] was 10 to 15 %ID/g and the “Concentration in blood, Mean ± St. D.” value ([3]; 5 min p.i.) was 2.28 ± 0.23 nmol. For the same molecule, the Concentration in blood ([3]; 5 min p.i.) was 2.56 nmol and 2.09 nmol and 2.47 nmol and 2.02 nmol and 2.24 nmol, the “Concentration in blood, Mean ± St. D.” value ([3]; 1 hour p.i.) was 1.25 ± 0.35 nmol and the Concentration in blood ([3]; 1 hour p.i.) was 1.40 nmol and 1.31 nmol and 1.73 nmol and 0.93 nmol and 0.88 nmol. For the same molecule, the “Concentration in blood, Mean ± St. D.” value ([3]; 2 hours p.i.) was 0.59 ± 0.15 nmol, the Concentration in blood ([3]; 2 hours p.i.) was 0.64 nmol and 0.40 nmol and 0.67 nmol and 0.47 nmol and 0.76 nmol and the “Concentration in blood, Mean ± St. D.” value ([3]; 4 hours p.i.) was 0.51 ± 0.07 nmol. The Concentration in blood ([3]; 4 hours p.i.) was 0.41 nmol and 0.49 nmol and 0.57 nmol (2×) and 0.48 nmol, the “Concentration in blood, Mean ± St. D.” value ([3]; 6 hours p.i.) was 0.38 ± 0.06 nmol and the Concentration in blood ([3]; 6 hours p.i.) was 0.41 nmol and 0.38 nmol and 0.32 nmol and 0.35 nmol and 0.46 nmol. For the same molecule, the “Concentration in blood, Mean ± St. D.” value ([3]; 16 hours p.i.) was 0.12 ± 0.03 nmol, the Concentration in blood ([3]; 16 hours p.i.) was 0.11 nmol and 0.13 nmol and 0.10 nmol and 0.16 nmol and 0.08 nmol and the “Concentration in blood, Mean ± St. D.” value ([3]; 26 hours p.i.) was 0.02 ± 0.01 nmol. For the same molecule, the Concentration in blood ([3]; 26 hours p.i.) was 0.02 nmol (3×) and 0.03 nmol (2×), the half-life ([3]; female, BALB/cAcNHsd, mouse, whole blood, intravenous, 0.5 mg/kg, two-phase kinetics, read-out: characteristic half lifetime of blood clearance, first phase (converted)) was 36 min and the “characteristic time for complete clearance of the blood, second phase” value ([3]; two-phase kinetics) was 7.5 h. The “signal drop in first phase of blood clearance” value ([3]; two-phase kinetics) was 66%.
